Test results published in patent US20240182536A1 (MURAL ONCOLOGY, published 2024).
Numbering of substitutions follows the chain as printed. In names and notes the source's numbering stands.

B1: mouse IL-18 G3T, H6K, K52A on monoFc scaffold (Fc fusion, not shown: small tags and cut ends)
chain: NFTRLKSTTAVIRNINDQVLFVDKRQPVFEDMTDIDQSASEPQTRLIIYMYADSEVRGLAVTLSVKDSKMSTLSSKNKIISFEEMDPPENIDDIQSDLIFFQKRVPGHNKMEFESSLYEGHFLACQKEDDAFKLILKKKDENGDKSVMFTLTNLHQSNGGPSVFLFPPKPKDTLMISRTPEVTCVVVDVSHEDPEVKFNWYVDGVEVHNAKTKPREEQYNSTYRVVSVLTVLHQDWLNGKEYKCKVSNKALPAPIEKTISKAKGQPREPQVYTLPPSREEMTKNQVNLTCLVKGFYPSDIAVEWESNGQPENNYKTTPPVLDSDGSFFLNSTLTVDKSRWQQGNVFSCSVMHEALHNHYTQKSLSLS
B2: mouse IL-18 G3V, H6K, K52A on monoFc scaffold (Fc fusion, not shown: small tags and cut ends)
chain: B1 chain with T3V
B3: mouse IL-18 G3T, K52A on monoFc scaffold (Fc fusion, not shown: small tags and cut ends)
chain: B1 chain with K6H
B4: mouse IL-18 G3V, K52A on monoFc scaffold (Fc fusion, not shown: small tags and cut ends)
chain: B1 chain with T3V, K6H
B5: Comparator 5 (ligand)
chain: HFGRLHCTTAVIRNINDQVLFVDKRQPVFEDMTDIDQSASEPQTRLIIYAYGDSRARGKAVTLSVKDSKMSTLSCKNKIISFEEMDPPENIDDIQSDLIFFQKRVPGHNKMEFESSLYEGHFLACQKEDDAFKLILKKKDENGDKSVMFTLTNLHQS
B6: IL-18 variant K53T, S55P (ligand)
chain: YFGKLESKLSVIRNLNDQVLFIDQGNRPLFEDMTDSDMRDNAPRTIFIISMYTDPQPRGMAVTISVKSEKISTLSSENKIISFKEMNPPDNIKDTKSDIIFFQRSVPGHDNKMQFESSSYEGYFLASEKERDLFKLILKKEDELGDRSIMFTVQNED
B7: IL-18 variant K53H, S55V (ligand)
chain: B6 chain with T53H, P55V
B8: IL-18 variant K53T, S55A (ligand)
chain: B6 chain with P55A
B9: IL-18 variant K53S, S55Y (ligand)
chain: B6 chain with T53S, P55Y

biological target: T1, mouse IL-18 binding protein (mouse, UniProt Q9Z0M9 29-193); experiment: cell-based or functional assay
T1 sequence (looked up): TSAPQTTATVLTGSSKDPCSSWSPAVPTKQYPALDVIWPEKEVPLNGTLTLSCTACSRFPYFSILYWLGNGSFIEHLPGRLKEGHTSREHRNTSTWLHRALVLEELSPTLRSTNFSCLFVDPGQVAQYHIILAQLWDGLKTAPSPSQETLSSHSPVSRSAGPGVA

Binder	mouse IL-18 reporter assay EC50, +Mouse IL-18BP 50 nM [nM]
B1	0.00169
B2	0.00486
B3	0.0208
B4	0.0364
B5	0.00091

biological target: T2, mouse IL-18 receptors on PathHunter U2OS mIL18-NF-kb reporter cells (mouse, UniProt Q61098 20-537; Q9Z2B1 20-614); experiment: cell-based or functional assay
T2 sequence (looked up) 1: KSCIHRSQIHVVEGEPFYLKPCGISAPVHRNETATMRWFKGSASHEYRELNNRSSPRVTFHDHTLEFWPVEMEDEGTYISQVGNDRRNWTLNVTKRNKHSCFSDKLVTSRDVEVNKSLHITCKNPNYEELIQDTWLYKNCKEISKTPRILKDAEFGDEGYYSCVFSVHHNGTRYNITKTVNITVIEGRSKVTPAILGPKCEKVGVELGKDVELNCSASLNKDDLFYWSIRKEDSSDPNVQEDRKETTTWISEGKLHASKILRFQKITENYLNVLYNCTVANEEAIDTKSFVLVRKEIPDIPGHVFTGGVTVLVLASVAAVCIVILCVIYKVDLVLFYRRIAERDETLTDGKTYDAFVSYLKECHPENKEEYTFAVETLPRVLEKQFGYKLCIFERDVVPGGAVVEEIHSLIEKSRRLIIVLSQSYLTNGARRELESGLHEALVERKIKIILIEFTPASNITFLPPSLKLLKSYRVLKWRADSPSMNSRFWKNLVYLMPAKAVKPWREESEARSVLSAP
T2 sequence (looked up) 2: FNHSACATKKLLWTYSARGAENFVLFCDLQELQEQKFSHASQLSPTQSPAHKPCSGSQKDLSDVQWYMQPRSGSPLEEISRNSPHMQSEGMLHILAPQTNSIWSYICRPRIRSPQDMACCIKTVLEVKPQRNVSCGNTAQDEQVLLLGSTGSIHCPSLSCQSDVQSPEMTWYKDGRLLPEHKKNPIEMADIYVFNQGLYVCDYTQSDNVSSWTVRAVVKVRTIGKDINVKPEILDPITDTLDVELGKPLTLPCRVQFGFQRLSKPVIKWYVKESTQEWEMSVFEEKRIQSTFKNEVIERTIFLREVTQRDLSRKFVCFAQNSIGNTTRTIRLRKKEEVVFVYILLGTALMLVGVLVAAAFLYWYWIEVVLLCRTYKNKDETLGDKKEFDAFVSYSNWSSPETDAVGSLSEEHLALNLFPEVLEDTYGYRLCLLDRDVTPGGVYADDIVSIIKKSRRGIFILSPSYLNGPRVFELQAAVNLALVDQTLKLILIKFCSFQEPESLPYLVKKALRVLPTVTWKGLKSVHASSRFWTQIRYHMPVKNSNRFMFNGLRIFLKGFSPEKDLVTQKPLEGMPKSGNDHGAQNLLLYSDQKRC

Binder	mouse IL-18 reporter assay EC50, without mouse IL-18BP [nM]
B1	0.00176
B2	0.0009
B3	0.00124
B4	0.0007
B5	0.00149

biological target: T3, IL-18 receptors on HEK-Blue IL-18 reporter cells (UniProt Q13478 19-541; O95256 20-599, limits assumed); experiment: cell-based or functional assay
T3 sequence (looked up) 1: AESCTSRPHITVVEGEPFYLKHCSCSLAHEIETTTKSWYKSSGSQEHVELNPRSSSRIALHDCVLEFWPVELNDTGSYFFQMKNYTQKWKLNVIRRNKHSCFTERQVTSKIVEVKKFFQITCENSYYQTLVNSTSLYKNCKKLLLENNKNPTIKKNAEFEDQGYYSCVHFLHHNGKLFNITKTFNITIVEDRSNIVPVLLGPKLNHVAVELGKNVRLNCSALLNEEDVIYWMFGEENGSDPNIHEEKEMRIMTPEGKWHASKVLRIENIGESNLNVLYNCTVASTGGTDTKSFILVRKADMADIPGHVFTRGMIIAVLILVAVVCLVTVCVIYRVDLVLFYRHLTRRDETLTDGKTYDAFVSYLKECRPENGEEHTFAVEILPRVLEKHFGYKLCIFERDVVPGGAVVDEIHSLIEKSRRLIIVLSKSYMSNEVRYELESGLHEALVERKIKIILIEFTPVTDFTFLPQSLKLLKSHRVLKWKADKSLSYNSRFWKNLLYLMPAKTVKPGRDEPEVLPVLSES
T3 sequence (looked up) 2: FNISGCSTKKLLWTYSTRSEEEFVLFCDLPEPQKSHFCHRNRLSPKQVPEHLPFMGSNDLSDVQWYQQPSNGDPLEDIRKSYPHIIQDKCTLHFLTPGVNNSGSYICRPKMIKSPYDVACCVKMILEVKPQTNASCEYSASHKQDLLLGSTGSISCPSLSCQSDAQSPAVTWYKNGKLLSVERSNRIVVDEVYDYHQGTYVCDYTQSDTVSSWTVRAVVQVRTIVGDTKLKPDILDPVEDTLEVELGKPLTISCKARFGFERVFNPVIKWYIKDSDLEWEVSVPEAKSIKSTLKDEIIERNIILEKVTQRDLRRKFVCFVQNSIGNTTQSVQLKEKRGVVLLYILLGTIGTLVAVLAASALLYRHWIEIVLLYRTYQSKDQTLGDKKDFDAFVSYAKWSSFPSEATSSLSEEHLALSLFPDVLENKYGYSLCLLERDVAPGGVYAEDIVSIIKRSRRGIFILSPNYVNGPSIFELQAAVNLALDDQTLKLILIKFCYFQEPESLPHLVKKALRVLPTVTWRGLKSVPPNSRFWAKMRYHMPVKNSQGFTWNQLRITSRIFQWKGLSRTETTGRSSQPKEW

Binder	HEK-blue EC50 (pM) - BP [pM]
B6	103
B7	45.5
B8	67.4
B9	70

biological target: T4, interleukin 18 binding protein (IL-18BP) (UniProt O95998 31-194); experiment: cell-based or functional assay
T4 sequence (looked up): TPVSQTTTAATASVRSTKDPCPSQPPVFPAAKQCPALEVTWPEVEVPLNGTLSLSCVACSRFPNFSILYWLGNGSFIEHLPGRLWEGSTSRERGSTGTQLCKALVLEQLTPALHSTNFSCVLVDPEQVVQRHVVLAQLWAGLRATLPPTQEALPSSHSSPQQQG

Binder	HEK-blue EC50 (pM) + 300 nM BP [pM]	Ratio
B6	133	1.3
B7	> 200	10.1
B8	140	2.1
B9	136	1.9

biological target: T1, mouse IL-18 binding protein; experiment: Octet BLI, monoFc scaffold
Procedure: (§1) Octet 96red instrument was used to determine affinities of IL18 proteins to BP or receptors. 5-10 ug/ml analyte proteins were used for loading on Sartorius tips (AHC or SA). […] 120-180 s loading, 200 s association and 800 s dissociation were used for kinetics. 3-7 data points were used to calculate affinities.
(§2) Several mouse variants were next tested for binding affinity to mouse IL-18R alpha and mouse IL-18BP.

Binder	Kd [nM]
B1	78
B2	14
B3	11
B4	2

biological target: T5, mouse IL-18 receptor alpha (mouse, UniProt Q61098 20-326, limits assumed); experiment: Octet BLI, monoFc scaffold
T5 construct: also called Mouse IL18Ra; mouse IL-18R alpha
T5 sequence (looked up): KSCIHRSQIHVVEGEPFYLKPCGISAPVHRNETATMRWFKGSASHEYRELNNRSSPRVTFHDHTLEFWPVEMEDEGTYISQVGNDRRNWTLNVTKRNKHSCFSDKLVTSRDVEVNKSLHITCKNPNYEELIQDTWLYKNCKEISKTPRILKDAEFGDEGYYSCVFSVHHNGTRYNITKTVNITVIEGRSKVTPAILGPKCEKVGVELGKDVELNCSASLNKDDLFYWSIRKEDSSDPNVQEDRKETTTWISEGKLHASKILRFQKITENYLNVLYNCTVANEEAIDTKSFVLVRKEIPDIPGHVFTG
Procedure: as §1, §2

Binder	Kd [nM]
B1	42.7
B2	4.85
B3	97
B4	8.85
